According to patent US20240408249A1 (NATIONAL RESEARCH COUNCIL OF CANADA, published 2024):
Positions count from the first letter of the chain named. Each block holds one binder with its values, some of them ahead of it.

Columns and labels:
[1] = target: T1, EGFRvIII (epidermal growth factor receptor variant III) over-expressed on the U87-EGFRvIII glioblastoma cell … (human, UniProt P00533 298-623); test: radioligand saturation binding on U87-EGFRvIII cells, 2 h on ice, gamma counting, one-site non-linear fit
T1 construct: The assay used cells over-expressing EGFRvIII (whole receptor on cells); EGFRvIII is its in-frame deletion of exons 2-7; also called de2-7EGFR; ΔEGFR
Method: (§1) 1. Cell lysate buffer was prepared using PBS with 1% Triton X-100 [0448] 2. Cell binding buffer was prepared using PBS with 0.5% BSA
(§2) This study followed the procedures described below: [0450] 1. Cell preparation: [0451] a. Harvest attached cells: recover sufficient, U87-EGFRvIII cells from T225 flasks using trypsin/EDTA and transfer to a 50 ml culture tube. Dispense a 50 μl sample of resuspended cells into an Eppendorf micro-tube and dilute with 50 μl of trypan blue. Fill a hemocytometer (10 μl) chamber and count the number of cells present. [0452] i. Count cells in four quadrants of the counting area. [0453] ii. Calculate cells/mL: count/4 quadrants×dilution factor×10⁴=cells/mL. [0454] b. Resuspend cells in medium to a final concentration of 3×10⁵ cells/ml. [0455] c. Plate 3×10⁵/1 mL U87-EGFRvIII into designated well of the 24-well plates and gently tap to evenly distribute cells (total 6 plates prepared-4 U87-EGFRvIII, 2 blanks) [0456] d. Incubate plates overnight at 37° C. and 5% CO₂. [0457] 2. Binding assay: [0458] Blocking agent was prepared as follows: 4500 μl as concentration of 4 μM; Final concentration of blocker 2 μM. [0459] For Conjugate A [0460] stock=7.58 mg/mL [0461] mg/ml=52.64 μM, add 342 μl [0462] Binding buffer: 4158 μl [0463] For Conjugate B [0464] stock=6.7 mg/mL [0465] mg/ml=46.53 μM, add 387 μl [0466] Binding buffer: 4113 μl [0467] a. Remove medium from two plates [0468] b. […]

[2] = target: T1, EGFRvIII (epidermal growth factor …); test: saturation binding of the 177Lu-labelled conjugate on U87-EGFRvIII cells, 2 h on ice, gamma counting; specific binding curve
Method: as §1, §2

Kd [1]: 6.78 nM
B1: Conjugate A ([177Lu]-Compound C-anti-EGFRvIII conjugate prepared from EGFRvIII antibody hH2-hL3) (antibody, V domains shown)
VH: QVQLQESGPGLVKPSQTLSLTCTVSGYSITSDYAWNWIRQPPGKGLEWIGYIGYNGRTSYNPSLKSRVTISRDTSKNQFSLKLSSVTAADTAVYYCARLGRGFAYWGQGTLVTVSS
VL: DIQMTQSPSSLSASVGDRVTITCHASQGINSNIGWLQQKPGKAFKGLIYHGTNLEDGVPSRFSGSGSGTDYTLTISSLQPEDFATYYCVQYAQFPYTFGQGTKLEIKR
modifications: [177Lu]-Compound C (DOTA chelate with PEG3 linker) conjugated to the antibody; attachment residues not stated; typical chelate to antibody ratios (CARs) of 3-4
notes: Radioimmunoconjugate as tested; also called [177Lu]-DOTA-anti-EGFRvIII; humanized variant of anti-EGFRvIII antibody 4E11

EC50 (read off the curve) [2]: ~3 nM
Kd [1]: 2.75 nM
B2: Conjugate B ([177Lu]-Compound C-anti-EGFRvIII conjugate prepared from EGFRvIII antibody hH3-hL1) (antibody, V domains shown)
VH: B1 VH with I49M, V68I
VL: B1 VL with L36Y, F44P, G46L
modifications: [177Lu]-Compound C (DOTA chelate with PEG3 linker) conjugated to the antibody; attachment residues not stated; typical chelate to antibody ratios (CARs) of 3-4
notes: as for B1
